The values that follow are results of earlier work, collected in article PMC3097287.

pKd: −log10 of the molar value. Where two headings read alike, the source gives them in different places.

Series [1] has as its target NPRA ECD (Rattus norvegicus) (UniProt P18910). Put plainly: sedimentation equilibrium.
The target in another series is ANP (Rattus norvegicus) (UniProt P01161).
Series [2] has as its target NPRA ECD (Rattus norvegicus) (UniProt P18910). Put plainly: sedimentation equilibrium. The source holds these as a separate data set.

Chain of UniProt P01161 (P01161 123-150): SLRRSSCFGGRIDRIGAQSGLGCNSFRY

In general, pKd refers to the negative decadic logarithm of the Kd, by convention in mol/L. In the case of NPRA ECD (from UniProt P18910), the pKd in series [1] was 6.30; with ANP (Rattus norvegicus), 9.00; in series [2], 8.00.
